Where “and” joins values, the source holds several entries; their conditions need not be identical. Equal entries are not always repeated.
Legend:
[1] = target: Thermodesulfatator indicus HARP, recombinant (Thermodesulfatator indicus); assay: SEC
[2] = target: Thermodesulfatator indicus HARP, recombinant (Thermodesulfatator indicus); assay: mass photometry

Thermodesulfatator indicus HARP, recombinant (enzyme)
stoichiometry N [1]: < 12 | stoichiometry N [2]: 2 and 4

Reference: article PMC9945441
